Experimental findings from patent US20230331781A1, “PAR4 DERIVED PEPTIDES, ANALOGS AND USES THEREOF” (Yissum Research Development Company of the Hebrew …, priority 2019, published 2023) are described below.

Assay [1] concerns MDA-MB-231 cells. As to the kind of experiment: PAR4 induced Matrigel invasion of MDA-MB-231 cells. In kind it is cell-based, human. The following applies: AYPGKF activated MDA-MB-231 cells, FIGS. 3B and 3C.
Assay [2] addresses T1, PAR4-Akt association (Homo sapiens, UniProt P31749).
T1 construct: FLAG; expressed in transfected cells
As to the kind of experiment: PAR4-Akt association, immunoprecipitation in HEK293 cells transfected with flg-Par4 and AYPGKF activated. The following applies: HEK 293T cells, wt flg-Par4, AYPGKF activation, FIG. 3D. The assay is classed as cell-based. The procedure: (§1) Experiments shown in FIG. 3A-3C were carried out in MDA-MB-231 cells. […] Unpaired Student's t test was used. This experiment is a representative of three independent experiments performed in triplicates. […] HEK 293T cells were transfected with wt flg-Par4 followed by AYPGKF activation of PAR4. IP was performed using anti fig abs of cells treated or not with CTP4-A peptide and immunoblotting with anti-Akt abs.
FIG. 4A—PH-Akt module alone binds PAR4-C-tail but not mutant R25C. HEK 293 cells were transiently transfected with flg-Par4 construct and either with GFP-PH-Akt domain alone or GFP-R25C. IP of cell lysates following PAR4 AYPGKF activation was carried out using anti-flg abs. Detection of either Akt-PH domain alone associated with PAR4 was performed with anti-GFP. […] FIG. 4C—The PI3K inhibitor […] inhibits the binding of Akt to PAR4. Treatment of HEK 293 cells with LY294002 for various time points or not, following transient transfection with flg-Par4 and AYPGKF activation was performed. Cell lysates were immunoprecipitated with anti-flg antibodies, and anti-Akt was used to assess the association of Akt with the PAR4 C-tail. […] Amino acid residues of PAR4- and PAR2-PH binding motifs. FIG. 4E—mutations inserted into flg-Par4 generated flg-Par4MutE346A. HEK293 cells were transiently transfected with either wt flg-Par4 or flg-Par4MutE346A. IP of cell lysates following PAR4 activation was carried out using anti-flg abs. Detection of PAR4-Akt association was performed by anti Akt Abs. While association with wt Par4 is seen after 5 and 10 min AYPGKF PAR4 activation, when using flg-Par4 E346A no inhibition is seen and effective association with Akt is seen at 30 min activation. FIG. 4F—utations inserted into flg-Par4 generated flg-Par4Mut F347A and flg-Par4Mut D349A. HEK293 cells were transiently transfected with either wt flg-Par4 or flg-Par4Mut F347A or flg-Par4Mut D349A. IP of cell lysates following PAR4 activation was carried out using anti-f/g abs. Detection of PAR4-Akt association was performed by anti Akt Abs. While association with wt Par4 is seen after 5 min AYPGKF PAR4 activation, no such binding is obtained when using either flg-Par4 F347A or flg-Par4D349A.
HEK293 cells were transiently transfected with flg-Par4 followed by AYPGKF PAR4 activation in the presence and absence of PAR4c (4-4) within the range of 50 nM-150 μM. IP of cell lysates following different periods of activation was carried out using anti flg abs. Detection of Akt was performed by anti Akt abs. β-actin serves as a control gene for loading. […] Matrigel invasion before and after AYPGKF PAR4 activation and in the presence and absence of PAR4 c(4-4) inhibitor in the activated PAR4 cells. […] FIG. 8C—Histograms represent quantification of the cells/HPF invaded the Matrigel layer. […]

Assay [3] concerns the target T2, PAR4 and Akt (Homo sapiens, UniProt P31749).
T2 construct: endogenous in cells; host or cells: MDA-MB-231
In words: Inhibition of binding of PAR4 to Akt by PAR4 C-tail peptides (FIG. 3A). The assay is classed as cell-based. As to conditions: MDA-MB-231 cells. The procedure:
as §1
We evaluated the ability of these peptides to inhibit the binding of PAR4 to Akt protein. […] The PH-domain of Akt/PKB associates with PAR4. To elucidate whether Akt/PKB binds via its PH-domain, constructs of either wt Akt/PKB PH-domain were applied alone or an Akt/PKB-PH domain mutant R25C, impaired in its lipid binding capability of the Akt/PKB-PH domain. Transient transfections of flg-hPar4 and either wt GFP-PH-domain or PH-domain R25C mutant were carried out in HEK293 cells. Cells were activated by the PAR4 AYPGKF ligand for the indicated periods of time and the lysates were further processed for IP analysis. Distinct binding of GFP-Akt/PKB-PH domain module alone with the PAR4 C-tail was obtained (FIG. 4A). […] The mutant constructs (e.g., wt: YVSAEFRDKVRA; mutant F347L: YVSAELRDKVRA=PAR4MutF; mutant D349A: YVSAEFRAKVRA=PAR4MutD) were further evaluated for association with Akt/PKB. […]

Assay [4] concerns the target T3, Akt/PKB (protein kinase B) (UniProt P31749 1-480, limits assumed).
T3 construct: Endogenous Akt of human cell lines
In words: co-IP: anti-flg IP from HEK293 cells transfected with the mutant, anti-Akt blot (FIG. 4F). The procedure:
FIG. 4A—PH-Akt module alone binds PAR₄-C-tail but not mutant R25C. HEK 293 cells were transiently transfected with flg-Par4 construct and either with GFP-PH-Akt domain alone or GFP-R25C. IP of cell lysates following PAR₄ AYPGKF activation was carried out using anti-flg abs. Detection of either Akt-PH domain alone associated with PAR₄ was performed with anti-GFP. […] FIG. 4C—The PI3K inhibitor […] inhibits the binding of Akt to PAR₄. Treatment of HEK 293 cells with LY294002 for various time points or not, following transient transfection with flg-Par4 and AYPGKF activation was performed. Cell lysates were immunoprecipitated with anti-flg antibodies, and anti-Akt was used to assess the association of Akt with the PAR₄ C-tail. […] Amino acid residues of PAR₄- and PAR₂-PH binding motifs. FIG. 4E—mutations inserted into flg-Par4 generated flg-Par4MutE346A. HEK293 cells were transiently transfected with either wt flg-Par4 or flg-Par4MutE346A. IP of cell lysates following PAR₄ activation was carried out using anti-flg abs. Detection of PAR₄-Akt association was performed by anti Akt Abs. While association with wt Par4 is seen after 5 and 10 min AYPGKF PAR₄ activation, when using flg-Par4 E346A no inhibition is seen and effective association with Akt is seen at 30 min activation. FIG. 4F—utations inserted into flg-Par4 generated flg-Par4Mut F347A and flg-Par4Mut D349A. […]

Entries after “also recorded” stand apart in the source; their conditions may differ.

T1 sequence (P31749 whole entry): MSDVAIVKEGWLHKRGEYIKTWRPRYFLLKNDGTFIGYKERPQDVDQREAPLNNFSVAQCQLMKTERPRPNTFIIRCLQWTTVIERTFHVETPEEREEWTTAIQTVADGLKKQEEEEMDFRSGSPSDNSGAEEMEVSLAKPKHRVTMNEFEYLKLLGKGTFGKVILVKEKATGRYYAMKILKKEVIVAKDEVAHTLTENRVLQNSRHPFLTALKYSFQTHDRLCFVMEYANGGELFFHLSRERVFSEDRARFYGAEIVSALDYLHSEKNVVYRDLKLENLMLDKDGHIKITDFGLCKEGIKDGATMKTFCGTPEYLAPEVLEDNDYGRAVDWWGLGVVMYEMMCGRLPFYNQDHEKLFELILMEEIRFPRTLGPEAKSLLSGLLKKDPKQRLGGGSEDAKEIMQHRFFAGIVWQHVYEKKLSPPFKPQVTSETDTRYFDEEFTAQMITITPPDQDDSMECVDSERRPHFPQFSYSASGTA
T3 sequence (P31749 whole entry): as above
T2 sequence (P31749 whole entry): as above

For the molecule “H-DTVASKASAEGG-OH [CTP4-C, downstream PAR4 C-tail peptide]”, in assay [1], the “inhibition of PAR4 induced Matrigel invasion” value is listed as “no effect”. Regarding “H-RAGLFQRSPGDT-OH [CTP4-B, downstream PAR4 C-tail peptide]”, in assay [2], the “inhibition of PAR4-Akt association (IP)” value is reported as “not”. In addition, in assay [1], the “inhibition of PAR4 induced Matrigel invasion” value is given as “no effect”. H-YVSAEFRDKVRA-OH [Peptide 1]: in assay [2] (listed as CTP4-A), the “inhibition of PAR4-Akt association (IP)” value is “inhibited; also recorded: potently inhibits”. Moreover, the “inhibition of interaction between PAR4 and Akt” value in assay [3] is listed as “effectively inhibited”. Besides, in assay [1] (listed as CTP4-A), the “inhibition of PAR4 induced Matrigel invasion” value is “significantly inhibit; also recorded: attenuated”.

B1: hPar4 D349A (receptor, human, UniProt Q96RI0 48-385, looked up)
chain: GYPGQVCANDSDTLELPDSSRALLLGWVPTRLVPALYGLVLVVGLPANGLALWVLATQAPRLPSTMLLMNLAAADLLLALALPPRIAYHLRGQRWPFGEAACRLATAALYGHMYGSVLLLAAVSLDRYLALVHPLRARALRGRRLALGLCMAAWLMAAALALPLTLQRQTFRLARSDRVLCHDALPLDAQASHWQPAFTCLALLGCFLPLLAMLLCYGATLHTLAASGRRYGHALRLTAVVLASAVAFFVPSNLLLLLHYSDPSPSAWGNLYGAYVPSLALSTLNSCVDPFIYYYVSAEFRAKVRAGLFQRSPGDTVASKASAEGGSRGMGTHSSLLQ
notes: whole, on cells; also called PAR4MutD; flg-Par4Mut D349A
B1: the binding result in assay [4] was “no binding”.
